B1: Guanine nucleotide-binding protein alpha-4 subunit (Dictyostelium discoideum (Slime mold)), P34042 (parent)
chain: MRFKCFGSEETEQSSKIDKSIETDRRKLRKDVKLLLLGPGESGKSTIFKQMKIIQEDGGYSVEELLEYRAFVYSNCISQMEALLTASAKLNIELEVENKQRAANVLRRTIGNEPWLLLAADIKHLWEDKGIKETYAQKDKHFQLNDSAAYFFDNIDRYMREDFVPNEQDVLRCRVRTTGIQESEFTFDKIRLKIVDVGGQRSQRRKWIHCFDCVTAVIFVAAMSDYDQVLREDESVNRTRESLALFKEIVNCDYFKETPIVLFLNKKDLFKEKLKRVPLQSCFSDYTGPNKYKDAAMFIQSQYLAQGPSPRTIYTHATCAVDTENIKFVFRAVRQTILSQALEHF
partner: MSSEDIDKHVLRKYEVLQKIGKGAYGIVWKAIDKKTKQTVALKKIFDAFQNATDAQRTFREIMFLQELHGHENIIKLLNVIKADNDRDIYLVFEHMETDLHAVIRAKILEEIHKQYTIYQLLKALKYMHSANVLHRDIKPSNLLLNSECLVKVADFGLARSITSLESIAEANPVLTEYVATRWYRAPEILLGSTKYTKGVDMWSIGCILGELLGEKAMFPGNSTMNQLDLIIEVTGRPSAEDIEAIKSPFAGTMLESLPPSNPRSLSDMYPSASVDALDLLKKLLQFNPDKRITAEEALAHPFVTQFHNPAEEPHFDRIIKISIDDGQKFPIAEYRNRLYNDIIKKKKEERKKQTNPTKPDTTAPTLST

Variants of: B1
Details: with erk2_dicdi erkB

Question: For Q200L, which “effect of a mutation on the interaction” value is on record?
Answer: decreasing interaction

Question: How did the “effect of a mutation on the interaction” value turn out when R107E;R108E was run?
Answer: decreasing interaction

From IntAct's records for PubMed 19765570
